Laboratory results from publication PMC8842248.

Key:
PDE6D (Homo sapiens) = PDE6D (Homo sapiens) (UniProt O43924); conditions: cited from earlier work
[1] = target: HRAS peptide, …(OMe)-farnesyl; assay: ITC; PDE6D (100-300 μM) in the syringe, peptides (10-30 μM) in the cell; 25 °C; 10 mM Tris pH 7.5, 150 mM NaCl, 2 mM DTT, 5% DMSO
[2] = target: KRAS WT peptide, …(OMe)-farnesyl; assay: as above

Chain of INPP5E (Q9NRR6 1-641): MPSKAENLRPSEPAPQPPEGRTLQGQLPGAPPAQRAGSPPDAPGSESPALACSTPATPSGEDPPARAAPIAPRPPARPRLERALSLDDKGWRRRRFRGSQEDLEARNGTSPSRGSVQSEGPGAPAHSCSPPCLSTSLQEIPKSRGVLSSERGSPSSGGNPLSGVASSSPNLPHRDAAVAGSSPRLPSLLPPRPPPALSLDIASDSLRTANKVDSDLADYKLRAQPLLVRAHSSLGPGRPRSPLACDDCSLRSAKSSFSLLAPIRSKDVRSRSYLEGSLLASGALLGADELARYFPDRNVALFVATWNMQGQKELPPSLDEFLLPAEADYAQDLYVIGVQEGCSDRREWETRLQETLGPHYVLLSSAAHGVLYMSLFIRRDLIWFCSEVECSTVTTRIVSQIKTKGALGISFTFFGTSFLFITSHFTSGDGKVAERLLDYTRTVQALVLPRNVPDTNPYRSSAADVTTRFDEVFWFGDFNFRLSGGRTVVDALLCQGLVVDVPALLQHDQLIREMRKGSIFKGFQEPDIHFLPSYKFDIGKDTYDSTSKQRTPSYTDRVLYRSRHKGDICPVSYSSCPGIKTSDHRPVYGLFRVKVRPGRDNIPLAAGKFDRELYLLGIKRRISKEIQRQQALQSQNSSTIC

Kd [1]	Kd [2]	Substance	Kd (PDE6D (Homo sapiens))
–	–	INPP5E (from UniProt Q9NRR6)	10 nM
2700 nM	1300 nM	PDE6D (phosphodiesterase 6 delta), wild type, polyhistidine tag removed (from UniProt O43924 1-150) (natural protein)	–
